Values quoted from earlier work, collected in article PMC3702509, “Label Free Fragment Screening Using Surface Plasmon Resonance as a Tool for Fragment Finding – Analyzing Parkin, a Difficult CNS Target” (PLoS ONE, 2013).

Molecular target: UblD (Parkin ubiquitin-like domain) Ubl domain (Homo sapiens) (UniProt O60260)
Sequence (O60260 1-76): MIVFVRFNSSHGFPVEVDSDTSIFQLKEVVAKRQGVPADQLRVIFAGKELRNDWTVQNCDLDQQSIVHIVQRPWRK

Parkin (ΔUblD) ΔUblD, sequence (O60260 77-465, stated change not applied): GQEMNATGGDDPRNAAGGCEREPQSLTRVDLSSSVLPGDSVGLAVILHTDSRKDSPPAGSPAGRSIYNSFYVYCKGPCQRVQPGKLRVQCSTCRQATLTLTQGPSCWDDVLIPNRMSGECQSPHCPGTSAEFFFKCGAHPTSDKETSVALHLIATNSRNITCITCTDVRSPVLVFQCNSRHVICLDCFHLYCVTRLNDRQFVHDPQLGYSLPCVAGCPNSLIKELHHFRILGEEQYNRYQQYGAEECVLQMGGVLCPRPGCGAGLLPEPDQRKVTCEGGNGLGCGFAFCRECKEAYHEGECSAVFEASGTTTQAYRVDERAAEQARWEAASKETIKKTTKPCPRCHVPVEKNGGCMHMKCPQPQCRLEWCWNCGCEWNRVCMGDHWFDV

Kd: 2600 nM
Substance: Parkin (ΔUblD) ΔUblD (from UniProt O60260)
